The supplement of paper PMC9112550, “Optimization of the antimicrobial peptide Bac7 by deep mutational scanning” (BMC Biology, 2022)

System: Escherichia coli TOP10
Assay: shrunken log2 fold change of peptide-encoding DNA abundance (4.5 h post-induction vs induction); higher = less antimicrobial activity (less host growth inhibition)
Conditions: time post-induction: 4.5 h; library: site-saturation at positions 5, 18, 19, 20
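Note: peptides expressed intracellularly from a pBAD plasmid library in pooled LB shake-flask culture, induced with 0.3% L-arabinose, DNA abundance read by NGS, three biological replicates, DESeq2 with apeglm shrinkage.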

Row | Sequence | shrunken log2 fold change
1 | RRIRKRPPRLPRPRPRPWPPPRP | 0.56
2 | RRIRMRPPRLPRPRPRPGPPPRP | 1.23
3 | RRIRRRPPRLPRPRPRPRDMPRP | 0.186
4 | RRIRKRPPRLPRPRPRPFREPRP | 0.223
5 | RRIRERPPRLPRPRPRPCYTPRP | -0.0917
6 | RRIRKRPPRLPRPRPRPKYFPRP | -0.098
7 | RRIRRRPPRLPRPRPRPMDFPRP | 0.195
8 | RRIRERPPRLPRPRPRPCPHPRP | -0.105
9 | RRIRSRPPRLPRPRPRPKVTPRP | -0.173
10 | RRIRERPPRLPRPRPRPIHWPRP | -0.0429
11 | RRIRWRPPRLPRPRPRPHCNPRP | -0.465
12 | RRIRWRPPRLPRPRPRPGYNPRP | -0.0807
13 | RRIRDRPPRLPRPRPRPPHMPRP | 1.51
14 | RRIRQRPPRLPRPRPRPSSAPRP | 2.99
15 | RRIRMRPPRLPRPRPRPCAQPRP | -0.0823
16 | RRIRPRPPRLPRPRPRPDWPPRP | 0.524
17 | RRIRMRPPRLPRPRPRPEERPRP | 2.6
18 | RRIRVRPPRLPRPRPRPAHWPRP | 0.313
19 | RRIRQRPPRLPRPRPRPCKCPRP | -0.000687
20 | RRIRPRPPRLPRPRPRPKCIPRP | -1.04
21 | RRIRTRPPRLPRPRPRPIEIPRP | -0.0171
22 | RRIRLRPPRLPRPRPRPQSGPRP | -0.0923
23 | RRIRCRPPRLPRPRPRPCDTPRP | -0.0925

Row | Sequence | shrunken log2 fold change
24 | RRIRDRPPRLPRPRPRPWHAPRP | -0.134
25 | RRIRSRPPRLPRPRPRPMDEPRP | 0.0216
26 | RRIRSRPPRLPRPRPRPPDMPRP | -0.188
27 | RRIRRRPPRLPRPRPRPCQVPRP | 0.0476
28 | RRIRGRPPRLPRPRPRPDGHPRP | 0.471
29 | RRIRFRPPRLPRPRPRPYAEPRP | -0.823
30 | RRIRSRPPRLPRPRPRPAQGPRP | 0.19
31 | RRIRGRPPRLPRPRPRPIYNPRP | -0.185
32 | RRIRHRPPRLPRPRPRPCFCPRP | -0.226
33 | RRIRARPPRLPRPRPRPWFCPRP | 0.0743
34 | RRIRPRPPRLPRPRPRPTRLPRP | 0.769
35 | RRIRCRPPRLPRPRPRPHHSPRP | -0.201
36 | RRIRCRPPRLPRPRPRPIHRPRP | -0.0331
37 | RRIRTRPPRLPRPRPRPVMIPRP | -0.126
38 | RRIRMRPPRLPRPRPRPQREPRP | 0.203
39 | RRIRPRPPRLPRPRPRPFFWPRP | 0.559
40 | RRIRDRPPRLPRPRPRPVGTPRP | -0.0472
41 | RRIRLRPPRLPRPRPRPSMQPRP | -0.205
42 | RRIRFRPPRLPRPRPRPQPIPRP | 0.222
43 | RRIRTRPPRLPRPRPRPNFKPRP | -0.131
44 | RRIRGRPPRLPRPRPRPFVYPRP | 0.077
45 | RRIRSRPPRLPRPRPRPYLRPRP | -0.00709
46 | RRIRTRPPRLPRPRPRPNRFPRP | -0.00879

Row | Sequence | shrunken log2 fold change
47 | RRIRFRPPRLPRPRPRPDSQPRP | -0.271
48 | RRIRIRPPRLPRPRPRPVLWPRP | 0.199
49 | RRIRARPPRLPRPRPRPWMIPRP | -0.0822
50 | RRIRDRPPRLPRPRPRPNTLPRP | -0.269
51 | RRIRTRPPRLPRPRPRPIQTPRP | -0.0398
52 | RRIRDRPPRLPRPRPRPSYQPRP | -0.494
53 | RRIRIRPPRLPRPRPRPTLTPRP | -0.13
54 | RRIRFRPPRLPRPRPRPKSKPRP | -0.0737
55 | RRIRDRPPRLPRPRPRPQPVPRP | 0.28
56 | RRIRRRPPRLPRPRPRPYKCPRP | -0.639
57 | RRIRDRPPRLPRPRPRPFKWPRP | -0.0034
58 | RRIRERPPRLPRPRPRPFRYPRP | -0.268
59 | RRIRYRPPRLPRPRPRPINVPRP | -0.208
60 | RRIRKRPPRLPRPRPRPPWHPRP | 0.349
61 | RRIRGRPPRLPRPRPRPLQRPRP | 0.762
62 | RRIRSRPPRLPRPRPRPALHPRP | 0.16
63 | RRIRWRPPRLPRPRPRPQTIPRP | 0.106
64 | RRIRDRPPRLPRPRPRPHDQPRP | -0.0965
65 | RRIRERPPRLPRPRPRPSNRPRP | -0.209
66 | RRIRNRPPRLPRPRPRPQQSPRP | -0.0808
67 | RRIRSRPPRLPRPRPRPPVFPRP | 0.368
68 | RRIRPRPPRLPRPRPRPCKCPRP | -0.275
69 | RRIRYRPPRLPRPRPRPSTRPRP | -0.367

Row | Sequence | shrunken log2 fold change
70 | RRIRERPPRLPRPRPRPLYTPRP | -0.41
71 | RRIRPRPPRLPRPRPRPFDNPRP | -0.299
72 | RRIRLRPPRLPRPRPRPDKGPRP | -0.162
73 | RRIRARPPRLPRPRPRPSNPPRP | -0.0677
74 | RRIRTRPPRLPRPRPRPWVPPRP | 0.252
75 | RRIRLRPPRLPRPRPRPKWIPRP | 0.137
76 | RRIRLRPPRLPRPRPRPYAEPRP | -0.101
77 | RRIRIRPPRLPRPRPRPQYKPRP | -0.848
78 | RRIRPRPPRLPRPRPRPGEHPRP | -0.133
79 | RRIRYRPPRLPRPRPRPLSIPRP | -0.129
80 | RRIRYRPPRLPRPRPRPQGQPRP | -0.262
81 | RRIRARPPRLPRPRPRPIKLPRP | -0.16
82 | RRIRFRPPRLPRPRPRPKKKPRP | -0.00928
83 | RRIRNRPPRLPRPRPRPVYNPRP | -0.381
84 | RRIRWRPPRLPRPRPRPWEEPRP | 0.0688
85 | RRIRERPPRLPRPRPRPQWYPRP | -0.56
86 | RRIRCRPPRLPRPRPRPCCIPRP | -0.166
87 | RRIRNRPPRLPRPRPRPRCYPRP | -0.0588
88 | RRIRWRPPRLPRPRPRPDHLPRP | 0.08
89 | RRIRDRPPRLPRPRPRPADRPRP | 0.0125
90 | RRIRMRPPRLPRPRPRPDEKPRP | -0.0255
91 | RRIRVRPPRLPRPRPRPPYNPRP | -0.1
